The values below come from patent publication US20240386992A1 (MAX DELBR CK CENTRUM F R MOLEKULARE MEDIZIN IN DER …, published 2024).

In this assay the target is MERS-CoV wild type receptor-binding domain (MERS-wtRBD), Twin Strep tagged (MERS-CoV). Nature of the assay: ELISA (FIG. 9). (An ELISA detects its analyte on a solid surface through an enzyme-linked reagent.)

B1: LCA60 (antibody, V domains shown)
VH: EVQLLESGGGLVKPGGSLRLSCEASGLTFSNVWMSWVRQAPGKGLEWVGRIKRKSEGATTDYGAPVKGRFTLSRDDSKNTVYLQMNSLKIDDTAVYYCSTLTRGGDVWSSSYYFDYWGQGALVTVSS
VL: QSALTQPASVSGSPGQSITISCTGTSSDVGTYDLVSWYQQHPGKSPKLMIYADIKRPSGVSHRFSGSKSGNTASLTISGLQSADEADYYCCLYAGSSTSVIFGGGTKVT
For B1, the binding result was “binds”.

B2: D12 (antibody, V domains shown)
VH: EVKLVESGGGLVKPGGSLKLSCAASGFTFSSYAMSWVRQTPEKRLEWVATISSGGTYTYYPDSVKGRFTISRDNAENTLYLQMSSLRSEDTAMYYCVRDGNSMDYWGQGTSVTVSS
VL: DIQMTQTTSSLSASLGDRVTIICRASQDINNYLNWYQQKPDGTVKLLIYYTSRLHSGVPSRFSGSGSGSDYSLTISNLEQEDIATYFCQQANTLPPTFGAGTKLELR
In the case of B2, the binding result was “binds”.
